Each block holds one molecule with its values, some of them ahead of it. Where a SMILES comes first, the peptide text is derived from it. [ ]: non-standard residue; d: D form. The star is where a group is joined. Phe(3,4-Cl2) = N[C@@H](Cc1ccc(Cl)c(Cl)c1)C(=O)O; hArg = N=C(N)NCCCC[C@H](N)C(=O)O; Aoc(2) = CCCCCC[C@H](N)C(=O)O; CH2Cl = ClC*
Assays:
[1] = molecular target: LmClpP2 treated with beta-lactone D3 (Listeria monocytogenes); assay: not stated; oligomeric state of LmClpP2 after treatment with inhibitors (E2, D3, Aoc-CMK, Leu-CMK), Fig. S4; method and conditions are in the ESI
[2] = molecular target: Listeria monocytogenes ClpX chaperone (LmClpX) (Listeria monocytogenes) (UniProt Q8Y7K9)
LmClpP2 = molecular target: T1, LmClpP2 (Listeria monocytogenes, UniProt Q9RQI6); assay: peptidase assay, Ac-Ala-hArg-Leu-ACC hydrolysis; assay type: biochemical; conditions: 1 μM ClpP; 200 μM substrate; inhibitor 1, 10, 100 μM; no ClpX; covalent
T1 construct: gene clpP; purified homotetradecamer; construct details in ESI

LmClpXP2 [3] = molecular target: T2, LmClpXP2 (Listeria monocytogenes, UniProt Q9RQI6); assay: proteolysis of GFP-SsrA, fluorescence; assay type: biochemical; conditions: with LmClpX; inhibitor 1, 10, 100 μM; covalent; inhibition
T2 construct: gene clpP; ClpP2 homotetradecamer (LmClpP14) with hexameric chaperone LmClpX6

[4] = molecular target: partially Aoc-CMK-modified LmClpP2 homotetradecamer (Listeria monocytogenes); assay: not stated; oligomeric state of LmClpP2 after treatment with inhibitors (E2, D3, Aoc-CMK, Leu-CMK), Fig. S4; method and conditions are in the ESI
[5] = molecular target: Listeria monocytogenes ClpX chaperone (LmClpX) (Listeria monocytogenes) (UniProt Q8Y7K9); remark: listed apart in the source
LmClpXP2 [6] = molecular target: T2, LmClpXP2; assay: proteolysis of GFP-SsrA, fluorescence; assay type: biochemical
[7] = molecular target: Listeria monocytogenes ClpP2 homotetradecamer (LmClpP2), unmodified (Listeria monocytogenes); assay: not stated; oligomeric state of LmClpP2 after treatment with inhibitors (E2, D3, Aoc-CMK, Leu-CMK), Fig. S4; method and conditions are in the ESI
[8] = molecular target: Listeria monocytogenes ClpX chaperone (LmClpX) (Listeria monocytogenes) (UniProt Q8Y7K9); remark: listed apart in the source
[9] = molecular target: LmClpP2 treated with Leu-CMK (Listeria monocytogenes); assay: not stated; oligomeric state of LmClpP2 after treatment with inhibitors (E2, D3, Aoc-CMK, Leu-CMK), Fig. S4; method and conditions are in the ESI

- stoichiometry N [1]: 14
Molecule: LmClpP2 treated with beta-lactone D3 (enzyme)

Molecule: LmClpP1/2 heterocomplex containing Ser98 to Ala mutations
- K app from unfolding activity on GFP-LmSsrA (0.125 uM) with 0.4 uM LmClpX6 and varying concentrations of LmClpP14 (S98A heterocomplex) [2]: 224 nM

Molecule: COC(=O)c1ccc(OC(=O)CCc2cc(OC)c(OC)c(OC)c2)cc1 [AV170]
- % activity (LmClpP2): AV170 and both CMK inhibitors were the most effective against LmClpP2
- % activity (LmClpXP2 [3]): AV170 turned out to be the most effective inhibitor against each complex

- stoichiometry N [4]: 14
- protease activity (GFP-SsrA degradation) of LmClpXP2 at incremental Aoc-CMK concentrations, DMSO control as 100%; strongest at 5 uM Aoc-CMK, abolished at 50 uM [5]: 162%
Molecule: partially Aoc-CMK-modified LmClpP2 homotetradecamer (enzyme)

Molecule: CCCCCC[C@H](NC(=O)[C@H](CCCCNC(=N)N)NC(=O)[C@H](Cc1ccc(Cl)c(Cl)c1)NC(C)=O)C(=O)CCl [Aoc-CMK] (Ac-[Phe(3,4-Cl2)]-[hArg]-[Aoc(2)]-CH2Cl)
- activity at 5 µM (LmClpXP2 [6]): 162%

Molecule: LmClpP2(S98A) homocomplex (enzyme)
- K app from unfolding activity on GFP-LmSsrA (0.125 uM) with 0.4 uM LmClpX6 and varying concentrations of LmClpP14 (S98A homocomplex) [2]: 2360 nM

- stoichiometry N [7]: 14
Molecule: Listeria monocytogenes ClpP2 homotetradecamer (LmClpP2), unmodified (enzyme)

- K app from protease activity of LmClpXP1/2 at varying concentrations of LmClpP1/2 (LmClpP14) [8]: 85 nM
Molecule: LmClpP1/2 heterooligomeric complex, wild type (LmClpP1^wt/2^wt)

- stoichiometry N [9]: 14
Molecule: LmClpP2 treated with Leu-CMK (enzyme)

Reference: paper PMC5361862, “Insights into ClpXP proteolysis: heterooligomerization and partial deactivation enhance chaperone affinity and substrate turnover in Listeria monocytogenes” (Chemical Science, 2016)
